# Laboratory results published in patent US20220306736A1 (Y BIOLOGICS, published 2022).
# Target: T1, hVSIG4(S)-hFc (human)
# T1 construct: also called VGIG4(S)-Fc; hVSIG4 short-hFc (S)
# Test: western blot, 100 ng hVSIG4 short-hFc (FIG. 11B)
# Method: (A) Binding to hVSIG4(S) and hVSIG4(L) was assayed by ELISA with the original scFv versions of the 11 human anti-VSIG4 antibodies. (B) Binding to hVSIG4(S) and hVSIG4(L) was assayed by western blotting with the 11 full-length human anti-VSIG4 antibodies. NRH: Non-reduced, heated; RH: Reduced, heated.
# In each case, 100 ng of hVSIG4 long-hFc (L) and hVSIG4 short-hFc (S) were probed with the specific anti-VSIG4 antibody.
row,Binder,binding result
1,"SA2285 (antibody, V domains shown) VH: QVTLRESGPTLVKPTQTLTLTCTFRGFSLNTPGMGVAWIRQPPGKALEWLGLVFWDDDKTYRPSLRNRLTITKETSKSQVVLTMTNMDPVDTATYYCARIRGYYDWGSYYSYGMDVWGQGTTVTVSS VL: SYELTQPLSVSVALGQTARITCGGNNIGSKNVHWYQQKPGQAPVLVIYRDSNRPSGIPERFSGSNSGNTATLTISGVEAGDEADYYCQVWDSNSDQYVFGTGSKVTVL",binds
2,"SA1956 (antibody, V domains shown) VH: QVTLKESGPTLVKPTQTLTLTCTFSGFSLTTSGVAVAWIRQPPGKALEWLALIYWDGDERYSSSLKNRLTITKDTSKSQVVLTMTNMDPVDTATYYCARIRGYYDWGSYYSYGMDVWGQGTTVTVSS VL: SYELTQPLSVSVALGQTARITCGGNNIGSKNVHWYQQKPGQAPVLVIYRDSNRPSGIPERFSGSNSGNTATLTISRAQAGDEADYYCQVWDSSTHVVFGGGTKLTVL",binds
3,"SA1957 (antibody, V domains shown) VH: QVTLRESGPTLVKPTQTLTLTCTFSGFSFNTPGEGVTWIRQPPGKALEWLALIYWDDEKHYNPSLNGRLTITKDTSKSQVVLTMTNMDPVDTATYYCARIRGYYDWGSYYSYGMDVWGQGTTITVSS VL: SYELTQPLSVSVALGQTARITCGGNNIGSKNVHWYQQKPGQAPVLVIYRDSNRPSGIPERFSGSNSGDTATLTISGAQAGDEADYYCQVWDSSTHVVFGGGTKLTVL",binds
4,"SA2291 (antibody, V domains shown) VH: QMQLVESGGGLVKPGGSLRLSCAASGFTFSDHYMSWIRQAPGKGLEWVSSISSGGGTIYYADSVKGRFTISRDNAKNSLYLQMNSLRAEDTAVYYCARREYDSDGHYYFDYWGQGILVTVSS VL: SYELTQPPSVLVSPGQTARITCSGDALPKQYAYWYQQKPGQAPVLVMYKDNVRPSGIPERFSGSSSGTTVTLTISRVQAEDEADYYCQSVDSSDTSVVFGGGTKLTVL",binds
5,"SA2386 (antibody, V domains shown) VH: QVQLVESGGGLVKPGGSLRLSCAASGSTFRVAWVNWVRQAPGKGLEWVGRIKSNSDGGTTDYATPMKDRFIISRDDSKNTVFLQMNSLRAEDTAVYYCARHGDANAYYYGMDVWGQGTKVTVSS VL: QSALTQPASVSGSPGQSITISCTGTSSDVGGYNYISWYQQHPGKAPRLLIYDVSDRPSGVSNRFSGSKSANTASLTISGLQAEDEADYYCSSYASSSTLYVFGTGTKVTVL",binds
6,"SA2390 (antibody, V domains shown) VH: QVQLVESGGGLVQPGRSLRLSCAASGFTFDDYAMHWVRQAPGKGLEWISGISWNSGNIVYADSVKGRFTISRDNAKNSLYLQMNSLRAEDTAVYYCARETALAFDMWGPGTMVTVSS VL: DIQMTQSPSSVSASVGDRVTITCRASQGISYWLAWYQQKPGIAPKLLIFASSRLHSGVPSRFNGSGSGTDFTLTINSLQPEDFATYYCLQATSFPYTFGQGTKLEIK",binds
7,"SA1975 (antibody, V domains shown) VH: QVQLVESGAEIKKPGASMNVSCKASGYIFTNYYIHWVRQAPGQGLEWIGIIDPSGGSTTYAQKFQHRVTMTSDTSTSTVYMELIGLGSEDTAVYYCARDYWGSLDYWGQGTLVTVSS VL: NFMLTQPHSVSESPGKTVTISCTRSSGSIASNYVQWYQQRPGSAPTIVIYENYLRPSEVPDRFSGSIDSSSNSASLTISGLKTEDEGDYYCQSYDSRNRNYVFGTGTKVTVL",binds
8,"SA2290 (antibody, V domains shown) VH: QMQLVESGAEVKKPGASVKVSCKASGYTFTSYGISWVRQAPGQGLEWMGWISAYNGNTNYAQKLQGRVTMTTDTSTSTAYMELRSLRSEDTAVYYCARDYWGSLDHWGQGALVTVSS VL: NFMLTQPHSVSGSPGKTVTISCTRSSGSIDINYVQWYQQRPGSAPTIIIYEDSQRTSGVPDRFSGSIDRSSNSASLTISGLKTEDEGDYYCQSYDSRNRNYVFGTGTKVTVL",binds
9,"SA2283 (antibody, V domains shown) VH: QVQLVESGGGLVKPGGSLRLSCAASGFTFSDYYMSWIRQAPGKGLEWVSYISSSGSTIYYADSVKGRFTISRDNAKNSLYLQMNSLRAEDTAVYYCARRYSAYETGYFDFWGQGTLVTVSS VL: DIQMTQSPSSLSASVGDRVTITCRASQGISTYLNWYQQKPGKAPKLLIYSTSTLQTGVPSRFSGGGSGTDFTLTISSLQPEDFATYYCQQSYSAPPTFGPGTKVEIK",binds
10,"SA2287 (antibody, V domains shown) VH: QVQLVESGGGVVQPGRSLRLSCAASGFTFSSRGMHWVRQAPGKGLEWVALIWYHGSDDSYADSVKGRFTISRDNSKNMVYLQMNSLRAEDTAVYYCANLGATDGFDIWGQGTVVTVSS VL: QSALTQPASVSGSPGQSITISCTGTSSDVSAYNYVSWYQQHPGKAPKLMIYGVSDRPSGVSFRFSGSKSGNTASLTISGLQAEDEAYYYCNSYTTSNTWVFGGGTKLTVL",binds
11,"SA2455 (antibody, V domains shown) VH: QMQLVESGGGLVKPGGSLRLSCAASGFTFSDYYMSWIRQAPGKGLEWVSYISSSGSTIYYADSVKGRFTISRDNAKNSLYLQMNSLRAEDTAVYYCARPGYYYGLDVWGQGTTVTVSS VL: DIQMTQSPSTLSASVGDRVTITCRASQSISSWLAWYQQKPGIAPKLLIYQASILDSGVPSRFSGSGSGTEFTLTISSLQPDDFATYYCQQYSSLWTFGPGTKVDIK",binds
